Measurements: paper PMC5591422, “A Peptide-Fc Opsonin with Pan-Amyloid Reactivity” (Frontiers in Immunology, 2017)
One block for each binder: values may come before it. Ends that are not written are not given here.

Tests used:
[1] = biological target: rVλ6Wil amyloid-like fibrils; test: SPR; BIAcore X, CM5 chip coated with rVλ6Wil fibrils (channel 1) and rVλ6Wil monomer (channel 2, subtracted as control); Fcp5 2 µg/mL or p5 0.2 µg/mL, 70 µL, 20 µL/min, 200 s binding and 200 s dissociation; two-state binding algorithm with conformational change
[2] = biological target: Aβ(1–40) amyloid-like fibrils; test: ELISA; EuLISA: amyloid-like fibrils (0.83 µM) adsorbed to microplate wells overnight at 37°C, blocked with 1% BSA in PBS; Fcp5, biotinylated-p5 or Fc2a titrated in PBS with 1% BSA and 0.05% tween 20; detected with biotinylated goat anti-mouse IgG and europium-streptavidin; estimated EC50
[3] = biological target: rVλ6Wil amyloid-like fibrils; test: as above
[4] = biological target: T1, IAPP amyloid-like fibrils (human, UniProt P10997 34-70); test: as above; conditions: both partners purified
T1 construct: islet amyloid polypeptide, the mature hormone; Fibrillar state; also called IAPP fibrils; islet amyloid polypeptide fibrils; source: bought: Anaspec (90% pure); fibrils prepared in sterile PBS
T1 peptide (looked up): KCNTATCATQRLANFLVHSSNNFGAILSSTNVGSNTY

Kd [1]: 5 nM
signal deflection [1]: 100 au
EC50 [2]: 230 nM
EC50 [3]: 14 nM
EC50 [4]: ~200 nM
B1: peptide p5 (peptide)
peptide: GGGYSKAQKAQAKQAKQAQKAQKAQAKQAKQ
modifications: also: biotinylated in EuLISA, site not given here, 125I-labelled in pulldown assays
notes: non-natural 31-amino acid peptide with eight lysines in a heptad repeat; also called biotinylated-p5; source: synthetic peptide (Anaspec), purified by RP-HPLC

Kd [1]: 3 nM
signal deflection [1]: 200 au
EC50 [2]: 4 nM
EC50 [3]: 1 nM
EC50 [4]: ~15 nM
B2: Fcp5 (peptide p5-murine IgG2a Fc fusion) (Fc fusion)
chain: VTPTVGGGYSKAQKAQAKQAKQAQKAQKAQAKQAKQVTPTV
modifications: not fully specified (C-terminus); also: fused to murine IgG2a Fc, glycosylated, site not given here
notes: 5-amino acid spacer flanking p5; peptide p5, non-natural 31-amino acid polybasic peptide; Disulfide-linked dimer by SDS-PAGE (theoretical monomer Mw 31,553); Cloned into the Nco I and Bgl II sites of pFUSE-mIgG2A-Fc in frame with the IL-2 secretory leader and the Fc; also called peptide p5-Fc fusion construct; source: HEK293T/17, transient transfection, purified from culture supernatant (protein …)
